These results are taken from publication PMC10533564 (Communications Biology, 2023).

In assay [1] the target is T1, sTNFR2, monomeric extracellular domains of TNFR2 obtained from etanercept (Homo sapiens, UniProt P20333).
T1 construct: extracellular domains of TNFR2 as in etanercept; also called TNFR2 ECD; source: from etanercept (Pfizer): IdeS digestion, reduction with 2-mercaptoethylamine, purified (Protein A flow-through, SEC); not shown: Fc (human IgG1, of etanercept), C-terminal, cleaved
Briefly: SPR; antibody captured (~400 RU) on anti-human IgG Fc on a CM5 chip, sTNFR2 as analyte in twofold dilution series; PBS with 0.005% Tween 20, pH 7.4, 25 °C; 1:1 global kinetics fit. The conditions noted are these: both partners purified. On the technique in general: Surface plasmon resonance follows binding to a sensor surface in real time, without labels.

In assay [2] the target is T2, tumor necrosis factor-alpha (TNFα) (UniProt P01375).
T2 construct: tumor necrosis factor-alpha; source: bought: Peprotech #AF-200-01A (named for the reporter assay)
T2 sequence (P01375 77-233): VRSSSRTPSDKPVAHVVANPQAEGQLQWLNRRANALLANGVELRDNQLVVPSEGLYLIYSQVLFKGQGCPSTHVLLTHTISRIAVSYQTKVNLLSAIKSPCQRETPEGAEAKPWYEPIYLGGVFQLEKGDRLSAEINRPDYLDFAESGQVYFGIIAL
Briefly: SPR; TNFα immobilised on a CM5 chip by amine coupling (140 RU); antibodies 10 nM or 100 nM flowed; HBS-EP+, 25 °C. The following applies: both partners purified.

B1: TR109 chimeric conventional IgG (antibody, V domains shown)
VH: QVQLKESGPGLVAPSQSLSITCTVSGFSLTVYGVNWVRQPPGKGLEWLGMIWGDGSTAYNSALKSRLTITKDNSKTQVFLKMNSLQTDDTARYYCARDGRRYALDYWGQGTSVTVSS
VL: DIVLTQSPTSLAVSLGQRATISCRASESVDSYGDSFLHWYQQKPGQPPILLIYRASNLDSGIPARFSGSGSRTDFTLTINPVEADDVATYYCQQSNEDPYTFGGGTKLEIK
In assay [1], B1 showed a Kd of 5.6 nM.

B2: TR109 cIgG (chimeric, human IgG1/kappa) (antibody, V domains shown)
VH: QVQLKESGPGLVAPSQSLSITCTVSGFSLTVYGVNWVRQPPGKGLEWLGMIWGDGSTAYNSALKSRLTITKDNSKTQVFLKMNSLQTDDTARYYCARDGRRYALDYWGQGTSVTVSS
VL: DIVLTQSPTSLAVSLGQRATISCRASESVDSYGDSFLHWYQQKPGQPPILLIYRASNLDSGIPARFSGSGSRTDFTLTINPVEADDVATYYCQQSNEDPYTFGGGTKLEIK
For B2, the binding result in assay [2] was “no binding (tested: 10 nM or 100 nM)”.

B3: TR92 chimeric conventional IgG (antibody, V domains shown)
VH: KVQLQQSGAELVKPGASVKLSCKASGYTFTESIIHWVKQRSGQGLEWIGWFYPGSDNINYNEKFKDKATLTADKSSSTVYMELTRLTSEDSAVYFCASHEGPYVYFDYWGQGTTLTVSS
VL: DIVMTQSHKFMSTSVGDRVSITCKASQDVSTAVAWYQQKPGQSPKLLIYWTSTRHTGVPDRFTGSGSGTDYTLTISSVQAEDLALYYCQHHYSTPYTFGGGTKLEIQ
B3 came in with a Kd in assay [1] of 4 nM.

B4: TR92 cIgG (chimeric, human IgG1/kappa) (antibody, V domains shown)
VH: KVQLQQSGAELVKPGASVKLSCKASGYTFTESIIHWVKQRSGQGLEWIGWFYPGSDNINYNEKFKDKATLTADKSSSTVYMELTRLTSEDSAVYFCASHEGPYVYFDYWGQGTTLTVSS
VL: DIVMTQSHKFMSTSVGDRVSITCKASQDVSTAVAWYQQKPGQSPKLLIYWTSTRHTGVPDRFTGSGSGTDYTLTISSVQAEDLALYYCQHHYSTPYTFGGGTKLEIQ
On to B4, for which the binding result in assay [2] is “no binding (tested: 10 nM or 100 nM)”.

B5: TR96 chimeric conventional IgG (antibody, V domains shown)
VH: EVQLQQSGAELVKPGASVKLSCTPSGFNIKDTYMHWVKQRPEQGLEWIGRIDPANGYTEYDPKFQDKATITADTSSNTAYLQLSSLTSEDTAVYYCADTQLYYWGQGTTLTVSS
VL: QIVLTQSPAIMSASLGERVTMTCTASSSVSSTYLHWYQQKPGSSPKLWIYSTSNLASGVPARFSGSGSGTSYSLTISNMEAEDAATYYCHQYHRSPLTFGAGTKLELK
In assay [1], B5 yielded a Kd of 0.42 nM, a koff of 0.00024 s⁻¹ and a kon of 580000 M⁻¹ s⁻¹.

B6: TR94 cIgG (chimeric, human IgG1/kappa) (antibody, V domains shown)
VH: QVQLQQSGAELARPGTSVKLSCKASGYTFTSYWMQWVKQTPGQGLEWIGAIYPGDGDSRYIQKFKGKATLTADKSSSTAYMQLSSLASEDSAVYYCARDGNYYAMDYWGQGTSVTVSS
VL: QIVLTQSPAIMSASLGERVTITCTASSSVSSTYLHWYQQKPGSSPKLWIYSTSNLASGVPARFSGSGSGTSYSLTISSMEAEDAATYYCHQYHRSPPTFGAGTKLELK
Turning to B6, the binding result in assay [2] is “no binding (tested: 10 nM or 100 nM)”.

B7: TR96 cIgG (chimeric, human IgG1/kappa) (antibody, V domains shown)
VH: EVQLQQSGAELVKPGASVKLSCTPSGFNIKDTYMHWVKQRPEQGLEWIGRIDPANGYTEYDPKFQDKATITADTSSNTAYLQLSSLTSEDTAVYYCADTQLYYWGQGTTLTVSS
VL: QIVLTQSPAIMSASLGERVTMTCTASSSVSSTYLHWYQQKPGSSPKLWIYSTSNLASGVPARFSGSGSGTSYSLTISNMEAEDAATYYCHQYHRSPLTFGAGTKLELK
For B7, the binding result in assay [2] is listed as “no binding (tested: 10 nM or 100 nM)”.

B8: TR45 chimeric conventional IgG (antibody, V domains shown)
VH: EVQLQQSGPEMEKPGASVKISCKASGYSFTGYNMNWVKQSIGKSLEWIGKIDPYYGGTDYNLRFKDKATLTVDKSSSTAYMHLSRLTSEDSAVYYCAREPNYGSNDWYFDVWGAGTTVTVSS
VL: DIQVTQTTSSLSASLGDRVTISCRASQDIDNYLNWYQQRPDGTVKLLIYYTSILHSGVPSRFSGSGSRTDFSLTISSLEEEDFATYFCQQGNTLPWTFGGGTKLEFK
In turn, B8 yielded a Kd in assay [1] of 19 nM.

B9: TR45 cIgG (chimeric, human IgG1/kappa) (antibody, V domains shown)
VH: EVQLQQSGPEMEKPGASVKISCKASGYSFTGYNMNWVKQSIGKSLEWIGKIDPYYGGTDYNLRFKDKATLTVDKSSSTAYMHLSRLTSEDSAVYYCAREPNYGSNDWYFDVWGAGTTVTVSS
VL: DIQVTQTTSSLSASLGDRVTISCRASQDIDNYLNWYQQRPDGTVKLLIYYTSILHSGVPSRFSGSGSRTDFSLTISSLEEEDFATYFCQQGNTLPWTFGGGTKLEFK
Regarding B9, the binding result in assay [2] was “no binding (tested: 10 nM or 100 nM)”.

In general, Kd refers to the equilibrium constant for the complex coming apart. Broadly, the koff is a measure of how fast the partners let go of each other. Broadly, the kon is a measure of how fast the partners come together. Lower therefore signals slow association.
